Patent US6352723B1, “Brain-derived alkali-soluble immunoregulatory composition” (priority 1999, dated 2002)
Several values for one entry are separate records, joined by “and”; a condition that tells them apart may be missing. Equal entries are not always repeated.

Test system: lymphocytes
Experiment: Proliferation assay for stimulated lymphocytes (tritiated thymidine incorporation; % suppression, SI)
Type: cell-based, mice
Details: for SI (stimulation index): stimulant alone: OVA 500 μg/ml, PPD 25 μg/ml, ConA 2.5 μg/ml, LPS 10 μg/ml, ionomycin 100 ng/ml with 1 ng/ml PMA

Molecule | SI (stimulation index) | SI for chicken ovalbumin incubated with brain homogenate (homogenate removed by centrifugation and 0.2μ filter, n=4) | SI for chicken ovalbumin incubated alone (incubated without brain homogenate, n=4)
Concanavalin A [ConA, reference compound] | 31.2 ± 32.7 |  | 
ionomycin at 100 ng/ml with 1 ng/ml phorbol 12-myristate 13 acetate (PMA) [Ionomycin/PMA, reference compound] | 23.6 ± 11.2 |  | 
chicken ovalbumin (protein, UniProt P01012 2-386, looked up, Stimulating antigen) Ovalbumin: GSIGAASMEFCFDVFKELKVHHANENIFYCPIAIMSALAMVYLGAKDSTRTQINKVVRFDKLPGFGDSIEAQCGTSVNVHSSLRDILNQITKPNDVYSFSLASRLYAEERYPILPEYLQCVKELYRGGLEPINFQTAADQARELINSWVESQTNGIIRNVLQPSSVDSQTAMVLVNAIVFKGLWEKAFKDEDTQAMPFRVTEQESKPVQMMYQIGLFRVASMASEKMKILELPFASGTMSMLVLLPDEVSGLEQLESIINFEKLTEWTSSNVMEERKIKVYLPRMKMEEKYNLTSVLMAMGITDVFSSSANLSGISSAESLKISQAVHAAHAEINEAGREVVGSAEAGVDAASVSEEFRADHPFLFCIKHIATNAVLFFGRCVSP | 8.8 ± 5.8 and 7.9 ± 4.2 | 4.8±1.8 | 4.1±0.9
